# Reference: article PMC3734125, “Epitope Mapping and In Silico Characterization of Interactions between Der p 7 Allergen and MoAb WH9” (PLoS ONE, 2013)
# B1: MoAb WH9 (antibody, V domains shown)
# VH: QVQLEQSGAELAKVGASVKMSCKASGYTFTNYWMHWVKQRPGQGLEWIGYINPSIGYIDYNQKFKDKATLTVDKSSSTAYMQLSSLTSEDSAVYYCAGVEYGSSLGDYFDDWGQGTTL
# VL: not shown
# notes: variable domain of the heavy chain of WH9; the first nine amino acids derive from the PCR primer; variable domain of the light chain of WH9; the first eight amino acids derive from the PCR primer; also called mouse monoclonal antibody WH9; source: hybridoma WH9, culture supernatant
# Key:
# Assay in all cases: far-Western, overlay or dot blot; SDS-PAGE immunoblot: purified recombinant Der p 7 proteins on PVDF membrane, incubated with hybridoma culture supernatant (1:10 in TTBS, 1% skim milk) 1 h at room temperature; band intensities quantified; percent reduction against the wild type
# Conditions in all cases: one partner purified
# Der p 7 D159A mutant = biological target: T1, Der p 7 D159A mutant (Dermatophagoides pteronyssinus, UniProt P49273, D159A)
# T1 construct: Mite allergen Der p 7, Dermatophagoides pteronyssinus, GenBank U37044; source: E. coli JM109, purified (Ni-NTA)
# T1 sequence (P49273 18-215 D176A): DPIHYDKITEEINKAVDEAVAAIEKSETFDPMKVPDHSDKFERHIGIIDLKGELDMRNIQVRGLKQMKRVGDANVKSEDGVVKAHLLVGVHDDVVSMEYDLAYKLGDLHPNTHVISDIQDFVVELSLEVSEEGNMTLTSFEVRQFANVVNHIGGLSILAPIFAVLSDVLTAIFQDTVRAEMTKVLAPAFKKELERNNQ
# Der p 7 S156A mutant = biological target: T2, Der p 7 S156A mutant (Dermatophagoides pteronyssinus, UniProt P49273, S156A)
# T2 construct: Mite allergen Der p 7, Dermatophagoides pteronyssinus, GenBank U37044; source: E. coli JM109, purified (Ni-NTA)
# T2 sequence (P49273 18-215 S156A): as the sequence (P49273 18-215 D176A) above, with S139A, A159D counted along it
# Der p 7 P160A mutant = biological target: T3, Der p 7 P160A mutant (Dermatophagoides pteronyssinus, UniProt P49273, P160A)
# T3 construct: Mite allergen Der p 7, Dermatophagoides pteronyssinus, GenBank U37044; also called P106A (as printed once); source: E. coli JM109, purified (Ni-NTA)
# T3 sequence (P49273 18-215 P177A): as the sequence (P49273 18-215 D176A) above, with A159D, P160A counted along it
# Der p 7 L158A mutant = biological target: T4, Der p 7 L158A mutant (Dermatophagoides pteronyssinus, UniProt P49273, L158A)
# T4 construct: Mite allergen Der p 7, Dermatophagoides pteronyssinus, GenBank U37044; source: E. coli JM109, purified (Ni-NTA)
# T4 sequence (P49273 18-215 L175A): as the sequence (P49273 18-215 D176A) above, with L158A, A159D counted along it
# [1] = biological target: T5, Der p 7 (wild type, recombinant) (Dermatophagoides pteronyssinus, UniProt P49273)
# T5 construct: Mite allergen Der p 7, Dermatophagoides pteronyssinus, GenBank U37044; Expression and purification are described for the mutants (pQE80, E. coli JM109, Ni-NTA); also called wild-type Der p 7; source: purified recombinant protein
# T5 sequence (P49273 18-215): as the sequence (P49273 18-215 D176A) above, with A159D counted along it
binder,measurement,setting,value
B1,mean percentage of reduction in immunoreactivity against the wild type,Der p 7 D159A mutant,81%
same,mean percentage of reduction in immunoreactivity against the wild type,Der p 7 S156A mutant,18%
same,mean percentage of reduction in immunoreactivity against the wild type,Der p 7 P160A mutant,87%
same,mean percentage of reduction in immunoreactivity against the wild type,Der p 7 L158A mutant,87%
same,binding result,[1],binds
